The values below come from paper PMC5068707 (PLoS Pathogens, 2016).

First the molecules themselves.
B1: Ebola virus VP30 C-terminal domain (amino acids 139–288) (domain or fragment)
chain: GPKITLLTLIKTAEHWARQDIRTIEDSKLRALLTLCAVMTRKFSKSQLSLLCETHLRREGLGQDQAEPVLEVYQRLHSDKGGSFEAALWQQWDRQSLIMFITAFLNIALQLPCESSAVVVSGLRTLVPQSDNEEASTNPGTCSWSDEGTP

Assay [1] addresses MARV NP 552-579-VP30 146–281 fusion protein (Marburg virus (MARV)) (UniProt P27588). Briefly: crystal structure.
Assay [2] has as its target T1, EBOV NP C-terminal portion (360–739) (Ebola virus (EBOV), UniProt P18272 360-739).
T1 sequence: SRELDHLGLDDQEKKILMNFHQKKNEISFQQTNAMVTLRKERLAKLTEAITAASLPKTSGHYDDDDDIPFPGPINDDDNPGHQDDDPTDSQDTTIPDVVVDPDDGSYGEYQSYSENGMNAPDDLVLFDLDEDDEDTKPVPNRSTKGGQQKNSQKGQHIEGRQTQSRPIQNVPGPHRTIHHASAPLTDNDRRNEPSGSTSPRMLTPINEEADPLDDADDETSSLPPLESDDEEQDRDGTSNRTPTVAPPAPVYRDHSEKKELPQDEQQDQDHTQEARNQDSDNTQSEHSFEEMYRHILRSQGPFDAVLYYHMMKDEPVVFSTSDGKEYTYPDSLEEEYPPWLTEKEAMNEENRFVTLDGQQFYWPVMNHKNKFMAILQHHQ
Briefly: ITC. As to conditions: both partners purified.

The next assay addresses T2, MARV VP30 CTD (146–281) (Marburg virus (MARV), UniProt P35258 146-281).
T2 sequence: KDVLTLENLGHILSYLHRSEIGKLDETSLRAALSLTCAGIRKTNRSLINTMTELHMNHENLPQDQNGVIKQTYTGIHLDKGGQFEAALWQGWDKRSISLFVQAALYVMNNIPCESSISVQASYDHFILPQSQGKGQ
Briefly: ITC. The note with it: both partners purified.

Assay [3] deals with B1. Briefly: BLI. The note with it: both partners purified.
The target in assay [4] is B1. Briefly: crystal structure. The note with it: both partners purified.

Where no end group is shown, it is not given here.

Molecule “MARV NP 552-579-VP30 146–281 fusion protein (from UniProt P27588;P35258)” registered a stoichiometry N in assay [1] of 2.

Regarding B1, the dissociation constant Kd in assay [2] came out at 21.3 µM.

Regarding EQGVDLPPPPLYAQEKRQ [MARV NP peptide (552–569) fused to T4 lysozyme], in the assay with MARV VP30 CTD (146–281), binding was characterised by a dissociation constant (Kd) of 14 µM.

B2: biotinylated EBOV NP peptide 560–617 (peptide)
chain: RMLTPINEEADPLDDADDETSSLPPLESDDEEQDRDGTSNRTPTVAPPAPVYRDHSEK
modifications: not fully specified (N-terminus); also: biotinylated (position not given here)
Take B2: the binding result in assay [3] was “binds”.

Turning to SSLPPLESDDEEQDRDGTSNRTPTVAPPAPVYRDHSEK (not fully specified (N-terminus); also: biotinylated (position not given here)) [biotinylated EBOV NP peptide 580–617], the binding result in assay [3] is given as “binds”.

As for RTPTVAPPAPVYRDHSEKKELPQDEQQD [EBOV NP peptide (600–627), as the N-terminal part of the NP-VP30 fusion], the binding result in assay [4] is “binds”.

By stoichiometry N is commonly meant a count of units in the complex or per binding partner. As a reminder, the Kd is the free concentration of one partner at which half of the binding sites on the other are occupied at equilibrium, for simple one-to-one binding.
